For assay [1], the target named is human GPC3 (form in the assay not stated) (human, UniProt P51654 25-559, limits assumed). Kind of assay: method not stated.
The target in assay [2] is T1, Human NKp46 antigen (Acro Biosystems) expressed on HEK293 cells or CHO cells (human, UniProt O76036 22-255).
T1 construct: Bought
In words: ELISA on coated human NKp46 antigen, normalized binding curve. Background: ELISA stands for enzyme-linked immunosorbent assay.

For assay [3], the target named is T2, human NKp46 (form in the assay not stated) (human, UniProt O76036 22-255, limits assumed). In words: BIAcore.
T2 sequence (O76036 22-255 limits assumed): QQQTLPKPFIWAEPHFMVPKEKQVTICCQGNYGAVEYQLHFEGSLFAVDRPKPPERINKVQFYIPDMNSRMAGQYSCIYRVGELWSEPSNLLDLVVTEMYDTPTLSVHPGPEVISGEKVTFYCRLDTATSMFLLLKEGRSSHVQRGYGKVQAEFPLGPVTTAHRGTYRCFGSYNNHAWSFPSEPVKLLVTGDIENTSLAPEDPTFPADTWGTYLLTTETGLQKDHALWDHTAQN
The target of assay [4] is T2, human NKp46 (form in the assay not …). Kind of assay: BIAcore; SE(KD) 2.20E-10. Background: In SPR one partner is held on a chip, and binding of the other changes the refractive index at the surface.

Changes are numbered by the printed parent chain.

T1 sequence (O76036 22-255 limits assumed): as above
Chain of human GPC3 (form in the assay not stated) (P51654 25-559 limits assumed): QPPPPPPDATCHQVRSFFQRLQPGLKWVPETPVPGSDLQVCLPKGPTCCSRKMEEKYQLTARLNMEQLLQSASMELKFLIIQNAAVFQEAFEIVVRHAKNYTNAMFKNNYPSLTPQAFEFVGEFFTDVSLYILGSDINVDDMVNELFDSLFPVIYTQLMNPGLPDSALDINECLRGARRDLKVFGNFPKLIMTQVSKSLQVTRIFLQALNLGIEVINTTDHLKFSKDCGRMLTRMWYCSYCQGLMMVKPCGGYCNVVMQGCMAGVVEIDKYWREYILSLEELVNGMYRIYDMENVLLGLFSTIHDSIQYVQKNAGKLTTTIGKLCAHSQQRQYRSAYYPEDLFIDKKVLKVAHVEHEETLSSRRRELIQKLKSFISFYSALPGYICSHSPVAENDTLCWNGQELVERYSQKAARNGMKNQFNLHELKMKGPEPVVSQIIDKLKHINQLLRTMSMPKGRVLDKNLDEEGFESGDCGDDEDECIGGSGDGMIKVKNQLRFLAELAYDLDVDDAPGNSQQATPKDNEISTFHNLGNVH

B1: NKE1 (GPC3/NKp46/wt_IgG1), FLEX-NK tetravalent NKp46 engager directed against GPC3 (bispecific antibody)
heavy: not shown
light 1: DIVMTQSPATLSLSPGERATLSCRASQSISDYLHWFQQKPHESPRLLIKYASQSISGIPARFSGSGSGSDFTLTISSLEPEDFAVYYCQNGHSFPLTFGPGTKVDIKRTVAAPAVFIFPPSDEQLKSGTASVVCLLKNFYPREAKVQWKVDNALQSGNSQESVTEQDSKDSTYSLSSTLTLSKADYEKHKVYACEVTHQGLSSPVTKSFNRGEC
light 2: not shown
notes: Tetravalent; also called wildtype NKE1; copies: 2 + 2 + 2
Consider B1, for which, in assay [1], the “fold higher affinity compared to human NKp46” value is around 50 fold.

B2: humanized 09 anti-NKp46 antibody (antibody, IgG4, V domains shown)
VH: EVQLQQSGAEVKKPGSSVKVSCKTSGYTFTEYSMHWVRQAPGKSLEWFGGISPNSGGTSYNQKFKGRATLTVDKSSSTAYMELSSLRSEDTAVYYCARRDFHSSFDYWGQGTTVTVSS
VL: DIVMTQSPATLSLSPGERATLSCRASQSISDYLHWFQQKPHESPRLLIKYASQSISGIPARFSGSGSGSDFTLTISSLEPEDFAVYYCQNGHSFPLTFGPGTKVDIK
notes: Humanized with an IgG4 framework; ELISA used MAbs with humanized variable and mutated IgG4, kappa light chain detected; also called 09 antibody humanized
For B2, the Kd in assay [2] is around 27 pM.

B3: humanized 12 anti-NKp46 antibody (antibody, IgG4, V domains shown)
VH: B2 VH
VL: B2 VL with M4L
notes: Humanized with an IgG4 framework; ELISA used MAbs with humanized variable and mutated IgG4, kappa light chain detected; also called 12 antibody humanized
For B3, in assay [2], the Kd was around 25 pM.

B4: mouse anti-NKp46 monoclonal antibody 09 (antibody, V domains shown)
VH: EVQLQQSGPELVKPGTSVKISCKTSGYTFTEYSMHWVKQSHGKSLEWFGGISPNSGGTSYNQKFKGKATLTVDKSSSTAYMELRSLTSEDSAVYYCARRDFHSSFDYWGQGTTLTVSS
VL: DIVMTQSPATLSVTPGDRVSLSCRASQSISDYLHWFQQKSHESPRLLIKYASQSISGIPSRFSGSGSGSDFTLSINSVEPEDVGVYYCQNGHSFPLTFGPGTKLELK
notes: Mouse hybridoma antibody raised in NKp46-deficient mice against NKp46-Ig; also called 09 antibody; mAb 09
The molecule B4 yielded a kon in assay [3] of 6.22e+07 M⁻¹ s⁻¹.

B5: mouse anti-NKp46 monoclonal antibody 12 (antibody, V domains shown)
VH: B4 VH
VL: B4 VL with M4L, D17N, R18S
notes: Mouse hybridoma antibody; also called 12 antibody; mAb 12
In assay [4], B5 gave a Kd of 1670 pM.

As a reminder, the Kd is a measure of binding affinity in units of concentration. For orientation: kon means the rate constant with which the complex forms. A lower kon goes with slow association.

The values are drawn from US20240199759A1 (CYTOVIA THERAPEUTICS, published 2024).
